{"source": "patent US20090269346A1", "about": "(RAPTOR PHARMACEUTICAL, published 2009)", "key": {"[1]": {"target": "T1, LRP2 CR2728 (UniProt P98164 3552-3631)", "T1 construct": "domain: CR27 and CR28; its making is not described", "T1 sequence (looked up)": "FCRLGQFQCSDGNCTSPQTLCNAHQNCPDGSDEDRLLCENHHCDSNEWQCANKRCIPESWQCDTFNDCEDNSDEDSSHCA", "experiment": "solid-phase binding assay, ligand at 80 nM on coated CR proteins, blank-corrected absorbance", "experimental": "(§1) Solid phase binding assays-Purified, refolded CR protein (1 μg) was bound to Nunc Maxisorp™ 96-well plates in TBS pH 8 supplemented with 5 mM CaCl₂ (TBSC) overnight at 4° C. Wells were washed with TBSC and then blocked with TBSC containing 2% bovine serum albumin (BSA). RAP ligands were then incubated with the immobilized receptor at a range of concentrations for 2 hours in the above blocking buffer supplemented with 0.05% Tween-20 at room temperature. Control wells contained no added ligand. As an additional control, to determine whether the absence of calcium affected binding, 10 mM EGTA was included in the incubation medium for some samples. Wells were washed with TBSTC and bound ligands detected with polyclonal anti-RAP (BP41/42, 1:1,000, BioMarin). Excess primary antibody was removed and wells washed before incubation with the secondary antibody, HRP-conjugated goat anti rabbit IgG (Bio-Rad). After washing, TMB substrate solutions (Bio-Rad) were added to detect HRP. Color development was stopped with 1N HCl. Absorption at 450 nm was measured with a microplate spectrophotometer (Molecular Devices). Data were plotted and Kd values derived by non-linear regression with the assumption of single-site binding (GraphPad Prism).\n(§2) Binding experiments were also carried out comparing the binding of RAP d3 and RAPv2A d3 to an array of CR pairs (FIG. 9), similar to the experiment depicted in FIG. 5. For these experiments, RAP d3 and RAPv2A d3 (or RAPv2 d3) were each incubated at 80 nM concentrations with LRP1 CR3-5, LRP6 CR12, LRP6 CR23, LRP6 CR1-3, LRP2 CR89, LRP2 CR2728, LRP2 CR3031, LRP2 CR3435, LRP2 CR34-36, VLDLR CR78, VLDLR CR6-8, MAT CR12, MAT CR23 and MAT CR34. Samples were tested twice, in duplicate, and values combined. Means and standard deviations were then calculated. Blank values obtained from wells incubated in the absence of ligand were used to correct absorbance data."}, "[2]": {"target": "T2, ST14 CR12 (human, UniProt Q9Y5Y6 452-524)", "T2 construct": "also called MAT CR12; Mat CR12", "T2 sequence": "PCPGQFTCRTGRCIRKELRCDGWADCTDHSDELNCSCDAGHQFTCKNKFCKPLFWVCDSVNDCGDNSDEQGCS", "experiment": "solid-phase binding assay, ligand at 80 nM on coated CR proteins, blank-corrected absorbance", "experimental": "as §1, §2"}, "[3]": {"target": "T3, LRP2 CR3031 (UniProt P98164 3677-3755)", "T3 construct": "domain: CR30 and CR31; its making is not described", "T3 sequence (P98164 3677-3755)": "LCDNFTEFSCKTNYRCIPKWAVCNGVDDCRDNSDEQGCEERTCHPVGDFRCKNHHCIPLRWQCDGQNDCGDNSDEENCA", "experiment": "solid-phase binding assay, ligand at 80 nM on coated CR proteins, blank-corrected absorbance", "experimental": "as §1, §2"}, "[4]": {"target": "T4, LRP2 CR89 Y1042W V1047D R1088D (human, UniProt P98164 1022-1105)", "T4 construct": "also called WDWD", "T4 chain": "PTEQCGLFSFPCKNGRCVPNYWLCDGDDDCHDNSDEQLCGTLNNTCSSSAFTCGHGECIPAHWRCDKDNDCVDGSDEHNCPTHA", "experiment": "solid-phase assay, coated CR protein, anti-RAP, OD450", "experimental": "as §1\n(§3) One premise of this work was that amino acids at A, C, A′ and C′ within the calcium-binding loops of a CR pair were key determinants of binding affinity for RAP and would be similarly important for binding of RAP variants. To test this idea, we prepared mutants of LRP2 CR89 in which the native, non-canonical residues at these positions were sequentially substituted with the non-native, canonical residues. As defined above, the A, C, A′, C′ string for LRP2 CR89 is YVWR. Mutants included LRP2 CR89 Y1042W (WVWR), LRP2 CR89 V1047D (YDWR), LRP2 CR89 R1088D (YVWD), LRP2 CR89 V1047D R1088D (YDWD), LRP2 CR89 Y1042W V1047D R1088D (WDWD), LRP2 CR89 Y1042W V1047D (WDWR), LRP2 CR89 Y1042W R1088D (WVWD). Binding to both RAP d3 and RAPv2A d3 were measured for each LRP2 CR89 mutant by solid-phase assay. Samples were tested in triplicate. OD values from uncoated wells, receptor-coated wells incubated with buffer alone, and uncoated wells incubated with the highest ligand concentration all gave similar values for all conditions tested."}, "[5]": {"target": "T5, LRP2 CR89 (human, UniProt P98164 1025-1102)", "T5 construct": "domain: CR8 and CR9; also called YVWR; L2 CR89; not shown: N-terminal hexahistidine and S-peptide from pET30(+)a", "T5 sequence (P98164 1025-1102)": "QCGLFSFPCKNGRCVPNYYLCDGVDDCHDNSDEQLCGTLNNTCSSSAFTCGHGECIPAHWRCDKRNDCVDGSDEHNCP", "experiment": "solid-phase assay, coated CR protein, anti-RAP, OD450", "experimental": "as §1, §3"}, "[6]": {"target": "T6, LRP2 CR89 V1047D (human, UniProt P98164 1022-1105)", "T6 construct": "also called YDWR", "T6 chain": "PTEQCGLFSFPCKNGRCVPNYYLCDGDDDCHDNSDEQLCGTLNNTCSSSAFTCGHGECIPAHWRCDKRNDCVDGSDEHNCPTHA", "experiment": "solid-phase assay, coated CR protein, anti-RAP, OD450", "experimental": "as §1, §3"}, "[7]": {"target": "T7, LRP2 CR89 V1047D R1088D (human, UniProt P98164 1022-1105)", "T7 construct": "also called YDWD", "T7 chain": "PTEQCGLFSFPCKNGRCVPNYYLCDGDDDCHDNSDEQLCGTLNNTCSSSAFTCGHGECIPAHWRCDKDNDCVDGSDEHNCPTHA", "experiment": "solid-phase assay, coated CR protein, anti-RAP, OD450", "experimental": "as §1, §3"}, "[8]": {"target": "T5, LRP2 CR89", "experiment": "solid-phase assay, coated CR protein, anti-RAP, OD450", "experimental": "(§4) Percent of maximum binding is the ratio of the OD at the highest concentration tested for each ligand and the highest OD measured for all such ligands at that concentration.\nas §1\n(§5) Next, binding of RAP d3 and RAPv2A d3 proteins to LRP1 CR3-5 and LRP2 CR89 was assessed. In order to understand the relative contributions of each RAPv2A d3 mutation to differences in affinity, we also prepared a number of RAPv2A d3 revertants and RAP d3 forward mutants, all comprising sequence variants intermediate between RAPv2A d3 and wild-type RAP d3 (FIGS. 7A and B, Table 1). Samples were tested in triplicate and experiments were repeated at least once. Values from different experiments were combined and a single mean and standard deviation obtained for each concentration of ligand tested.", "remark": "listed apart in the source"}, "[9]": {"target": "T8, LRP1 CR3-5 (human)", "T8 construct": "range 852-973; Amplified from human cDNA; also called L1 CR3-5", "T8 sequence (Q07954 852-973)": "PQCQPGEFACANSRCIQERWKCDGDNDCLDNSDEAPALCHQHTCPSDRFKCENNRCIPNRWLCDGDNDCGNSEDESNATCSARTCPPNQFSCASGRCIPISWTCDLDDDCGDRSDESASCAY", "experiment": "solid-phase assay, coated CR protein, anti-RAP, OD450", "experimental": "as §4, §1, §5"}}}
{"binder": "wild-type RAP d3 (ligand, expressed in E. coli from pET30(+)a; not shown: vector-encoded N-terminal tags of pET30(+)a (hexahistidine and S-peptide, as stated for the CR constructs)) LDRLRRVSHQGYSTEAEFEEPRVIDLWDLEQSANLTDKELEAFREELKHFEAKIEKHNHYQKQLEIAHEKLRHAESVGDGERVSRSREKHALLEGRTKELGYTVKKHLQDLSGRISRAR", "values": [{"measurement": "binding result", "setting": "[1]", "value": "no binding (tested: 80 nM)"}, {"measurement": "binding result", "setting": "[2]", "value": "no binding (tested: 80 nM)"}, {"measurement": "binding result", "setting": "[3]", "value": "no binding (tested: 80 nM)"}, {"measurement": "% max bind", "setting": "[4]", "value": 15, "unit": "%"}, {"measurement": "% max bind", "setting": "[5]", "value": 7, "unit": "%"}, {"measurement": "% max bind", "setting": "[6]", "value": 6, "unit": "%"}, {"measurement": "% max bind", "setting": "[7]", "value": 6, "unit": "%"}, {"measurement": "% max (percent of maximum binding)", "setting": "[8]", "value": 5, "unit": "%"}, {"measurement": "% max (percent of maximum binding)", "setting": "[9]", "value": 76, "unit": "%"}, {"measurement": "Kd", "setting": "[9]", "value": 16, "unit": "nM"}]}
